# Reference: PMC2563036, “The HLH-6 Transcription Factor Regulates C. elegans Pharyngeal Gland Development and Function”
# Columns and labels:
# HLH-2;HLH-6 = HLH-2;HLH-6 (Caenorhabditis elegans;Caenorhabditis …, UniProt G5EEG9;Q10007 1-399;1-268, |); test: EMSA; reticulocyte lysate; poly(dI-dC); no shift though both proteins expressed; EMSA with poly(dI-dC) (37 ng/ug as printed); 5% native PAGE, 100 V, 1 h, room temperature, 45 mM Tris, 45 mM boric acid, 1 mM EDTA pH 8; binding buffer not given in the material; details: protein: ivt;ivt; tags: ;; copies: 1;1; as annealed 5' overhangs of 2 nt (TG) on both strands; end labelled with Klenow, which may fill them in
# Sequence of HLH-2;HLH-6 (G5EEG9 whole entry, chain 1 of 2): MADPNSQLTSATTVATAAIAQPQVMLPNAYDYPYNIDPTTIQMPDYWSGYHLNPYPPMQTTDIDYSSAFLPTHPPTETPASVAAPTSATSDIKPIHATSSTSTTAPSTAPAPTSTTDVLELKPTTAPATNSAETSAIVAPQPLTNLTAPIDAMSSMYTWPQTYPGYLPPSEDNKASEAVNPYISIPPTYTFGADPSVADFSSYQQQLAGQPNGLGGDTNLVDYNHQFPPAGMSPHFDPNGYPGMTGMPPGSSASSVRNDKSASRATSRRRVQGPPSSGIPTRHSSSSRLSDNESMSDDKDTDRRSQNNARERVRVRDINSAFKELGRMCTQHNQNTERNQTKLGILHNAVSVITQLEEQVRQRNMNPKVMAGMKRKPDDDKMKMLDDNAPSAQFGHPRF
# Sequence of HLH-2;HLH-6 (Q10007 whole entry, chain 2 of 2): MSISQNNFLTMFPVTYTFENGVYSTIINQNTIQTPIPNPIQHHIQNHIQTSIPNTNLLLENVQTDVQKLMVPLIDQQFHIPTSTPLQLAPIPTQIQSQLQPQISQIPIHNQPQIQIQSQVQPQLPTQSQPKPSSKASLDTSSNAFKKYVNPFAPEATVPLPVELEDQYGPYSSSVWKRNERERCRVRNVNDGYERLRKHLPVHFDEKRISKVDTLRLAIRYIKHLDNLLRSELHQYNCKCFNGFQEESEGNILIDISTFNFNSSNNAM
# HLH-2;HLH-3 = HLH-2;HLH-3 (Caenorhabditis elegans;Caenorhabditis …, UniProt G5EEG9;Q22717 1-399;1-170, |); test: EMSA; co-translated in reticulocyte lysate; poly(dI-dC); EMSA with poly(dI-dC) (37 ng/ug as printed); 5% native PAGE, 100 V, 1 h, room temperature, 45 mM Tris, 45 mM boric acid, 1 mM EDTA pH 8; binding buffer not given in the material; details: protein: ivt;ivt; tags: ;His; copies: 1;1; as annealed 5' overhangs of 2 nt (TG) on both strands; end labelled with Klenow, which may fill them in
# Sequence of HLH-2;HLH-3 (G5EEG9 whole entry, chain 1 of 2): as the sequence (G5EEG9 whole entry, chain 1 of 2) above
# Sequence of HLH-2;HLH-3 (Q22717 whole entry, chain 2 of 2): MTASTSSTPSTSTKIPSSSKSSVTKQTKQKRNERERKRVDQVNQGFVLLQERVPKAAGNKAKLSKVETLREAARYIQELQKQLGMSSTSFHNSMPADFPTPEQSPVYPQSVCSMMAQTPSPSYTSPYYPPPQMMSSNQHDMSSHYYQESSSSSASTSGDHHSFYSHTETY
binder,measurement,setting,value
phat-3 PGM1 probe (oGD137/oGD138) (dsDNA) DNA 1: TGCAAACTTGATGCACCTGTTCAAATGTATGCCC DNA 2: TGGGGCATACATTTGAACAGGTGCATCAAGTTTG,binding result,HLH-2;HLH-6,no binding
same,binding result,HLH-2;HLH-3,binds
